{
  "source": "patent US20130005012A1",
  "about": "“ENZYMATIC SYSTEM FOR MONOMER SYNTHESIS” (PHYTOGENE, INC., priority 2011, published 2013)",
  "molecules": {"B1": {"name": "yeast FDC (ferulic acid decarboxylase, FDC1, Saccharomyces cerevisiae) in bait vector pGBKT7-Gateway (enzyme)", "chain": "MRKLNPALEFRDFIQVLKDEDDLIEITEEIDPNLEVGAIMRKAYESHLPAPLFKNLKGASKDLFSILGCPAGLRSKEKGDHGRIAHHLGLDPKTTIKEIIDYLLECKEKEPLPPITVPVSSAPCKTHILSEEKIHLQSLPTPYLHVSDGGKYLQTYGMWILQTPDKKWTNWSIARGMVVDDKHITGLVIKPQHIRQIADSWAAIGKANEIPFALCFGVPPAAILVSSMPIPEGVSESDYVGAILGESVPVVKCETNDLMVPATSEMVFEGTLSLTDTHLEGPFGEMHGYVFKSQGHPCPLYTVKAMSYRDNAILPVSNPGLCTDETHTLIGSLVATEAKELAIESGLPILDAFMPYEAQALWLILKVDLKGLQALKTTPEEFCKKVGDIYFRTKVGFIVHEIILVADDIDIFNFKEVIWAYVTRHTPVADQMAFDDVTSFPLAPFVSQSSRSKTMKGGKCVTNCIFRQQYERSFDYITCNFEKGYPKGLVDKVNENWKRYGYK", "notes": "Yeast two-hybrid bait fusion expressed in Clontech Y2HGold cells; also called FDC (Bait vector); not shown: fusion partner encoded by yeast two-hybrid bait vector pGBKT7-Gateway"}, "B2": {"name": "yeast PAD1 (phenylacrylic acid decarboxylase, Saccharomyces cerevisiae) in bait vector pGBKT7-Gateway (enzyme)", "chain": "VAITGATGVALGIRLLQVLKELSVETHLVISKWGAATMKYETDWEPHDVAALATKTYSVRDVSACISSGSFQHDGMIVVPCSMKSLAAIRIGFTEDLITRAADVSIKENRKLLLVTRETPLSSIHLENMLSLCRAGVIIFPPVPAFYTRPKSLHDLLEQSVGRILDCFGIHADTFPRWEGIKSK", "notes": "Yeast two-hybrid bait fusion expressed in Clontech Y2HGold cells; also called PAD1 (Bait vector); not shown: fusion partner encoded by yeast two-hybrid bait vector pGBKT7-Gateway"}, "B3": {"name": "yeast PAD1 (phenylacrylic acid decarboxylase, Saccharomyces cerevisiae) in prey vector pGADT7-Gateway (enzyme)", "chain": "B2 chain", "notes": "Yeast two-hybrid prey fusion expressed in Clontech Y2HGold cells; also called PAD1 (Prey vector); not shown: fusion partner encoded by yeast two-hybrid prey vector pGADT7-Gateway"}, "B4": {"name": "PAD1: phenylacrylic acid decarboxylase from S. cerevisiae, SEQ ID NO:10 encoded by SEQ ID NO:9 (protein, listed as Saccharomyces cerevisiae)", "chain": "MLLFPRRTNIAFFKTTGIFANFPLLGRTITTSPSFLTHKLSKEVTRASTSPPRPKRIVVAITGATGVALGIRLLQVLKELSVETHLVISKWGAATMKYETDWEPHDVAALATKTYSVRDVSACISSGSFQHDGMIVVPCSMKSLAAIRIGFTEDLITRAADVSIKENRKLLLVTRETPLSSIHLENMLSLCRAGVIIFPPVPAFYTRPKSLHDLLEQSVGRILDCFGIHADTFPRWEGIKSK"}},
  "key": {"FDC1": {"biological_target": "T1, FDC1 (Saccharomyces cerevisiae, UniProt Q03034)", "T1 construct": "6xHis (N-terminal tag of vector pDEST17); made in house; host or cells: E. coli BL21(DE3)", "T1 sequence (Q03034 1-503)": "B1 chain", "experiment": "Effect of metal ions on activity of purified FDC1", "format": "biochemical", "details": "10 mM metal ion, 1.4 mM tCA, pH 6.5, 5 minutes at 30° C., versus control without metal ions", "method": "To study the effect of metal ions on FDC1 activity, we carried out reactions with various metal ions, including ZnSO4, FeCl3, MnCl2, MgSO4, CaCl2, MnSO4, and FeSO4. Reaction mixtures of 25 mM potassium phosphate buffer pH 6.5 containing 1.4 mM tCA, 5 mM DTT, 10 mM metal ion, and 0.5 mg purified FDC1 adjusted to a final volume of 1 mL were incubated for 5 minutes at 30° C. After the reaction, 1 mL of propanol was added to the reaction mixtures to solubilize styrene. The experimental control used the same conditions except the reaction mixture contained no metal ions. The experimental negative control used the same conditions except the reaction mixture contained no substrate. […] The effects of Zn^2+ and Fe^3+ on FDC1 activity were further investigated using EDTA to cancel out the effects of the metal ions. Reaction mixtures of 25 mM potassium phosphate buffer pH 6.5 containing 1.4 mM tCA, 5 mM DTT, 10 mM metal ion, 10 mM EDTA and 0.5 mg purified FDC1 were adjusted to a final volume of 1 mL, and were incubated for 5 minutes at 30° C. After the reaction, 1 mL of propanol was added to the reaction mixtures to solubilize styrene. The experimental control used the same conditions except the reaction mixture contained no metal ions or EDTA. The experimental negative control used the same conditions except the reaction mixture contained no substrate. […] Based on results presented in FIGS. 10A and 10B, enzyme activity of FDC1 can be increased by metal ions and it was not due to experimental artifact."}, "cinnamic acid [1]": {"system": "cinnamic acid", "experiment": "Comparison of PAD1, FDC and OHBA1 activities in E. coli fed 1-40 mM cinnamic acid", "format": "cell-based", "method": "Sample (0.5 ml) was taken various treatments, and extracted with 0.3 ml of ethyl acetate. The upper phase was used for the analysis of the product styrene, and the lower phase for the analysis of cinnamic acid left in the medium."}, "p-coumaric acid": {"system": "p-coumaric acid", "experiment": "Feeding p-coumaric acid to Wat11 yeast expressing FDC, HPLC of products", "format": "cell-based, S. cerevisiae", "method": "(§1) 0.8 ml of well-suspended cultures was taken out of the culture tube and 0.4 ml of ethyl acetate was added. The mixture was votexed at the maximum speed for half an hour and centrifuged at 15,000 rpm for 10 min at room temperature.\n(§2) The extracted samples were analyzed by HPLC. HPLC was performed with an Agilent 1100 Series HPLC system using a SymmetryShield C18 column (Waters, 150×3.9 mm). The mobile phase consisted of solvent A (0.1% trifluoroacetic acid) and solvent B (acetonitrile). The gradient elution procedure was as follows: 0-5 min, 0% of B; 5-35 min, a linear gradient from 0% to 90% of B; 35-38 min, 90% of B; 38-40 min, 0% of B. The flow rate was 1.0 ml/min. The injection volume was 30 μl. Peaks for substrate and products areas were monitored at 260 nm. With this method, the retention times for cinnamic acid, p-coumaric acid, ferulic acid, styrene, 4-hydroxystyrene, and 4-vinylguaiacol (4-VG) were 21.5, 17.7, 17.7, 27.8, 22.3 and 22.1 min, respectively."}, "cinnamic acid [2]": {"system": "cinnamic acid", "experiment": "Feeding cinnamic acid to E. coli BL21AI expressing the enzyme, HPLC of products", "format": "cell-based", "details": "2 mM cinnamic acid, 37° C.", "method": "as §1, §2\nPlasmid pDEST17-PAD1 was transformed into E. coli strain BL21AI competent cells (Invitrogen). An overnight culture (2 ml) was inoculated into 40 ml of LB medium supplemented with 100 µg/ml ampicillin. Bacteria were grown at 37° C. in a shaker at 250 rpm for 3 h and then 0.2% (w/v) arabinose was added to the culture, followed by the addition of 2 mM of cinnamic acid. […]"}, "cinnamic acid [3]": {"system": "cinnamic acid", "experiment": "Feeding cinnamic acid to Wat11 yeast expressing the enzyme, HPLC of products", "format": "cell-based, S. cerevisiae", "details": "2 mM cinnamic acid, extracted after 8 hours", "method": "as §1\nas §2, with “respectively. […]” for “respectively.”\nAfter transformation, 100 μl of the transgenic yeast culture was spread on SD-trp medium (Clontech, Mountain View, Calif.) and incubated at 30° C. for 3 days. […] 2 mM cinnamic acid was added to 2 d-old yeast culture and the products were extracted with ethyl acetate after 8 hours and analyzed by HPLC."}, "ferulic acid [4]": {"system": "ferulic acid", "experiment": "Feeding ferulic acid to E. coli BL21AI expressing FDC, HPLC of products", "format": "cell-based", "method": "as §1, §2\nIn E. coli, pDEST17-FDC was transformed into E. coli strain BL21AI competent cells (Invitrogen). An overnight culture (2 ml) was inoculated into 40 ml of LB medium supplemented with 100 µg/ml ampicillin. […] The induced culture was further incubated at 37° C. and samples were taken at different time points for the analysis."}, "[5]": {"biological_target": "T2, yeast FDC (ferulic acid decarboxylase, FDC1, Saccharomyces cerevisiae) in prey vector pGADT7-Gateway (Saccharomyces cerevisiae, UniProt Q03034 1-503)", "T2 construct": "Yeast two-hybrid prey fusion expressed in Clontech Y2HGold cells; also called FDC (Prey vector); not shown: fusion partner encoded by yeast two-hybrid prey vector pGADT7-Gateway", "T2 sequence": "B1 chain", "experiment": "yeast two-hybrid, growth on SD-Trp-Leu-His plate (bait FDC, prey FDC)", "method": "(§3) We used yeast-two-hybrid system to test this hypothesis. […] Vectors pGBKT7-Gateway and pGADT7-Gateway are gifts from Dr. Brian P. Downes, Department of Biology, St Louis University (St Louis, Mo.). The resulting vectors were used to transform Clontech Y2HGold cells by one step transformation protocol as described in Example 4. 100 μl of the transformed cultures were spread on SD-Trp-Leu as well as SD-Trp-Leu-His plates and incubated at 30° C. for 3 days."}, "ferulic acid [6]": {"system": "ferulic acid", "experiment": "Feeding ferulic acid to Wat11 yeast expressing FDC, HPLC of products", "format": "cell-based, S. cerevisiae", "method": "as §1, §2"}, "[7]": {"biological_target": "T2, yeast FDC (ferulic acid decarboxylase, …)", "experiment": "yeast two-hybrid, growth on SD-Trp-Leu-His plate (bait PAD1, prey FDC)", "method": "as §3"}, "[8]": {"biological_target": "B1", "experiment": "yeast two-hybrid, growth on SD-Trp-Leu-His plate (bait FDC, prey PAD1)", "method": "as §3"}},
  "data": [
    {"molecule": "[Ca+2].[Cl-].[Cl-]", "note": "[Ca^+2, CaCl2]", "values": [
      {"measurement": "effect on FDC1 activity (styrene produced)", "setting": "FDC1", "value": "increased the activity of FDC1"}
    ]},
    {"molecule": "O=S(=O)([O-])[O-].[Mg+2]", "note": "[Mg^+2, MgSO4]", "values": [
      {"measurement": "effect on FDC1 activity (styrene produced)", "setting": "FDC1", "value": "increased the activity of FDC1"}
    ]},
    {"molecule": "[Cl][Fe]([Cl])[Cl]", "note": "[Fe^+3, FeCl3]", "values": [
      {"measurement": "effect on FDC1 activity (styrene produced)", "setting": "FDC1", "value": "increased the activity of FDC1"}
    ]},
    {"molecule": "O=S(=O)([O-])[O-].[Zn+2]", "note": "[Zn^+2, ZnSO4]", "values": [
      {"measurement": "effect on FDC1 activity (styrene produced)", "setting": "FDC1", "value": "increased the activity of FDC1"}
    ]},
    {"molecule": "B1", "values": [
      {"measurement": "styrene biosynthesis", "setting": "cinnamic acid [1]; E. coli, after feeding on cinnamic acid substrate for 2 h", "value": 94.6, "unit": "mg/L"},
      {"measurement": "4-hydroxystyrene production upon feeding of p-coumaric acid", "setting": "p-coumaric acid", "value": "production of 4-hydroxystyrene"},
      {"measurement": "styrene production upon feeding of cinnamic acid", "setting": "cinnamic acid [2]", "value": "Production of styrene was observed"},
      {"measurement": "styrene production upon feeding of cinnamic acid", "setting": "cinnamic acid [3]", "value": "production of styrene"},
      {"measurement": "4-vinylguaiacol (4-VG) production upon feeding of ferulic acid", "setting": "ferulic acid [4]", "value": "Production of 4-vinylguaiacol (4-VG) was also observed"},
      {"measurement": "binding result", "setting": "[5]", "value": "binds"},
      {"measurement": "4-VG production upon feeding of ferulic acid", "setting": "ferulic acid [6]", "value": "production of 4-VG"}
    ]},
    {"molecule": "B2", "values": [
      {"measurement": "binding result", "setting": "[7]", "value": "no binding"}
    ]},
    {"molecule": "B3", "values": [
      {"measurement": "binding result", "setting": "[8]", "value": "no binding"}
    ]},
    {"molecule": "B4", "values": [
      {"measurement": "styrene production upon feeding of cinnamic acid", "setting": "cinnamic acid [1]; E. coli in LB+Amp medium, 1-10 mM cinnamic acid", "value": "failed to produce any styrene"},
      {"measurement": "styrene production upon feeding of cinnamic acid", "setting": "cinnamic acid [2]", "value": "no styrene production was observed"},
      {"measurement": "styrene production upon feeding of cinnamic acid", "setting": "cinnamic acid [3]", "value": "no styrene can be observed"}
    ]}
  ]
}
